In patent publication US20210396744A1:

Columns and labels:
IgG [1] = assay: sandwich liposome assay: IgG at 50 nM captured by DNA aptamer on silicon supporter, FcIII peptide liposomes bound, washed, UV-triggered release of pH 8.5 buffer, change of surface potential read (SD 2.87 mV)
IgG [2] = assay: sandwich liposome assay: IgG at 10 nM captured by DNA aptamer on silicon supporter, FcIII peptide liposomes bound, washed, UV-triggered release of pH 8.5 buffer, change of surface potential read (SD 0.62 mV)

A surface potential variation (IgG [1]) of -10.6 mV and a surface potential variation (IgG [2]) of -3.75 mV were found for FcIII peptide in this work.
